25 variants from IntAct's records for PubMed 25678664 can be followed below.

The chains are these.
B1: Claudin-19 (Mus musculus), Q9ET38 (parent)
chain: MANSGLQLLGYFLALGGWVGIIASTALPQWKQSSYAGDAIITAVGLYEGLWMSCASQSTGQVQCKLYDSLLALDGHIQSARALMVVAVLLGFVAMVLSVVGMKCTRVGDSNPTAKSRVAISGGALFLLAGLCTLTAVSWYATLVTQEFFNPSTPVNARYEFGPALFVGWASAGLAMLGGSFLCCTCPEPERANSIPQPYRSGPSTAAREPVVKLPASVKGPLGV

The variants in the experiment derive from B1. Conditions: with eltb_clopf cpe.
Regarding I41A, the “effect of a mutation on the interaction” value is “decreasing interaction strength”.
On to I41V, for which the “effect of a mutation on the interaction” value is reported as “decreasing interaction strength”.
In the case of I41S, the “effect of a mutation on the interaction” value is recorded as “decreasing interaction strength”.
On to P151G, for which the “effect of a mutation on the interaction” value is given as “decreasing interaction strength”.
Regarding P151A, the “effect of a mutation on the interaction” value is given as “decreasing interaction strength”.
Regarding Y35S, the “effect of a mutation on the interaction” value is “decreasing interaction strength”.
Turning to T153Y, the “effect of a mutation on the interaction” value was “decreasing interaction strength”.
I40A: the “effect of a mutation on the interaction” value is “decreasing interaction strength”.
Take I40S: the “effect of a mutation on the interaction” value is recorded as “decreasing interaction strength”.
I40L: the “effect of a mutation on the interaction” value is on record as “decreasing interaction strength”.
With I40V, the “effect of a mutation on the interaction” value is “decreasing interaction strength”.
Regarding N156G, the “effect of a mutation on the interaction” value was “decreasing interaction strength”.
Regarding P154D, the “effect of a mutation on the interaction” value is on record as “decreasing interaction strength”.
Turning to P154A, the “effect of a mutation on the interaction” value is listed as “decreasing interaction strength”.
With N150Q the entry was “decreasing interaction strength”; with N150D, “decreasing interaction strength”; with N150K, “decreasing interaction strength”.
As to N150A, the “effect of a mutation on the interaction” value was “decreasing interaction strength”.
With N150S, the “effect of a mutation on the interaction” value is “decreasing interaction strength”.
For the variant N150L, the “effect of a mutation on the interaction” value is recorded as “decreasing interaction strength”.
On to Y159F, for which the “effect of a mutation on the interaction” value is “decreasing interaction strength”.
On to Y159S, for which the “effect of a mutation on the interaction” value is given as “decreasing interaction strength”.
With A39S, the “effect of a mutation on the interaction” value is “decreasing interaction strength”.
The value for A39R was “decreasing interaction strength”; that for S152D was “decreasing interaction strength”.
